According to paper PMC4333378, “Human PrimPol is a highly error-prone polymerase regulated by single-stranded DNA binding proteins” (Nucleic Acids Research, 2014):
Values belong to the binder of their own block, whether it stands above or below them.

Key:
mtSSB = biological target: T1, mtSSB (human, UniProt Q04837 17-148); experiment: EMSA; 10 mM Mg acetate; full shift at less than half the amount needed for RPA; super-shifted bands = multiple SSBs bound; EMSA: 50 mM K acetate, 20 mM Tris-acetate pH 7.9, 10 mM Mg acetate, 1 mM DTT, 60 nM FAM-ssDNA, 60 min at room temperature; 5% native PAGE in 0.5x TBE; settings: protein: recombinant; chain copies: 4; label: 5'-FAM (fluorescein); single strand
T1 sequence: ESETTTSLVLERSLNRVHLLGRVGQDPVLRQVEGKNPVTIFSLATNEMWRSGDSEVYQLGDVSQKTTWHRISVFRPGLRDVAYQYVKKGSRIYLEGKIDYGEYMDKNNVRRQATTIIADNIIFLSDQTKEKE

[1] = biological target: RPA (replication protein A) (human, UniProt P27694;P15927;P35244 1-616;1-270;1-121); experiment: EMSA; 10 mM Mg acetate; SSB/oligo 0-16; more than twice as much RPA as mtSSB needed to fully shift; super-shifted bands = multiple SSBs bound; EMSA: 50 mM K acetate, 20 mM Tris-acetate pH 7.9, 10 mM Mg acetate, 1 mM DTT, 60 nM FAM-ssDNA, 60 min at room temperature; 5% native PAGE in 0.5x TBE; settings: protein: recombinant; copies: 1;1;1; label: 5'-FAM (fluorescein); single strand
[2] = biological target: T2, full-length human PrimPol (recombinant) (human, UniProt Q96LW4 1-560); experiment: NMR titration; 15N-1H HSQC of 15N-enriched RPA domain (50 uM RPA70N) alone and with 2-fold molar excess (100 uM) of unlabelled PrimPol construct; 25°C; 20 mM HEPES, 80 mM NaCl, 2 mM DTT, 5% deuterium oxide, pH 7.1; settings: both partners purified
T2 construct: also called wild-type PrimPol
T2 sequence (looked up): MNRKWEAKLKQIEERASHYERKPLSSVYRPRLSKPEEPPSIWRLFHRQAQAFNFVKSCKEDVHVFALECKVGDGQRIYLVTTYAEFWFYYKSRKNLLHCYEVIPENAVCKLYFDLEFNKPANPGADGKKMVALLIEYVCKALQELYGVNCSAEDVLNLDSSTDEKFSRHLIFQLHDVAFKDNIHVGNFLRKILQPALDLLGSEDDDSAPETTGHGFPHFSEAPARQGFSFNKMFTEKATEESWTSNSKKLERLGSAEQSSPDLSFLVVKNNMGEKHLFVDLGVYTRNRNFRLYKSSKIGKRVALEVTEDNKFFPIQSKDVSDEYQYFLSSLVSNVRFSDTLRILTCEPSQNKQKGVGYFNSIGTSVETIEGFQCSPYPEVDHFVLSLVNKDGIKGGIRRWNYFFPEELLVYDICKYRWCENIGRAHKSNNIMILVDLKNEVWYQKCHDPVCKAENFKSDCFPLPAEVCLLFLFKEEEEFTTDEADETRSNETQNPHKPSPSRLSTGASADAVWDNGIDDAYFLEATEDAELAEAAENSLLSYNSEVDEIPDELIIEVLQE

Sequence of RPA (replication protein A) (P15927 whole entry, chain 2 of 2, the tested form may be a part): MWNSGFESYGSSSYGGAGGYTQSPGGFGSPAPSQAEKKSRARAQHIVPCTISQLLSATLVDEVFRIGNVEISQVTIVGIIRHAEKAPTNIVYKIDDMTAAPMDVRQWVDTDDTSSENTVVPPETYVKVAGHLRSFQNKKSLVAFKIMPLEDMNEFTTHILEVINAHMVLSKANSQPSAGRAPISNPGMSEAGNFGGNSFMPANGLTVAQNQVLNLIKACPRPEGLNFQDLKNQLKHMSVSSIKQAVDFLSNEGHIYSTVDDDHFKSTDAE
Sequence of RPA (replication protein A) (P35244 whole entry, chain 3 of 2, the tested form may be a part): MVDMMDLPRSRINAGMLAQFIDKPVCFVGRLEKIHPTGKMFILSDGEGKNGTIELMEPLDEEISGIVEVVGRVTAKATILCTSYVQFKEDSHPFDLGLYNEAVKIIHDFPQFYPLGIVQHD

Binder: CGCGCAGGGCGCACAACAGCCTTGAAGACCGAACGACCGAACAGACGACA (ssDNA) [ND-50 ssDNA Template (sequence 16)]
binding result (mtSSB): binds
binding result [1]: binds

binding result [2]: binds
B1: RPA70N^1–120 (DBD-N of RPA1, N-terminal domain of RPA70) (domain or fragment, human, UniProt P27694 1-120, looked up)
chain: MVGQLSEGAIAAIMQKGDTNIKPILQVINIRPITTGNSPPRYRLLMSDGLNTLSSFMLATQLNPLVEEEQLSSNCVCQIHRFIVNTLKDGRRVVILMELEVLKSAEAVGVKIGNPVPYNE
modifications: 15N-enriched
notes: RPA70 (RPA1) residues 1-120, N-terminal protein recruitment domain
